Measurements published in article PMC7367260, “Nucleosome binding by the pioneer transcription factor OCT4” (Scientific Reports, 2020).

Columns and labels:
human histone H3.1 = human histone H3.1 (human, UniProt P68431 1-136); experiment: cross-linking; XL-MS: LIN28B nucleosome (4.3 µM) mixed with OCT4 at nucleosome:OCT4 = 1:4, 1 h on ice, crosslinked with 9.6 mM DSS-H12/D12 at 30 °C for 30 min; Trypsin/Lys-C digest, LC/MS-MS, xQuest/xProphet; conditions: both partners purified
human histone H4 = biological target: T1, human histone H4 (human, UniProt P62805 1-103); experiment: as above; conditions: both partners purified
T1 construct: histone H4, human canonical histone, wild type; Stood in the assays as part of the reconstituted LIN28B nucleosome; The H4 S47C mutant was used only for the chemical probing assay

binding result (human histone H3.1): binds | binding result (human histone H4): binds
B1: His6-tagged human OCT4 (5CS) (natural protein)
chain: MAGHLASDFAFSPPPGGGGDGPGGPEPGWVDPRTWLSFQGPPGGPGIGPGVGPGSEVWGIPPCPPPYEFCGGMAYCGPQVGVGLVPQGGLETSQPEGEAGVGVESNSDGASPEPCTVTPGAVKLEKEKLEQNPEESQDIKALQKELEQFAKLLKQKRITLGYTQADVGLTLGVLFGKVFSQTTISRFEALQLSFKNMSKLRPLLQKWVEEADNNENLQEISKAETLVQARKRKRTSIENRVRGNLENLFLQSPKPTLQQISHIAQQLGLEKDVVRVWFSNRRQKGKRSSSDYAQREDFEAAGSPFSGGPVSFPLAPGPHFGTPGYGSPHFTALYSSVPFPEGEAFPPVSVTTLGSPMHSN
notes: OCT4, human; 5CS mutant: all 5 Cys residues of the POUS·POUHD domain replaced with Ser; Expressed from pET15b in which the thrombin site was replaced with a PreScission site; no cleavage step is described, and the gel-shift methods name His6-OCT4 (5CS). pET15b would place the tag at the N-terminus (surmised); also called His6-OCT4 (5CS)
